T1: Yhr016c SH3 (YSC84_YEAST), P32793
T1 chain: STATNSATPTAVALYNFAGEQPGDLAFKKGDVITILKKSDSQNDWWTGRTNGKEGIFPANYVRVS

T2: Boi1 SH3 (BOI1_YEAST), P38041
T2 chain: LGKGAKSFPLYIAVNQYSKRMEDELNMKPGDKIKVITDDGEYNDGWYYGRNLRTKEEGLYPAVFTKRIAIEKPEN

T3: Rvs167 SH3 (RV167_YEAST), P39743
T3 chain: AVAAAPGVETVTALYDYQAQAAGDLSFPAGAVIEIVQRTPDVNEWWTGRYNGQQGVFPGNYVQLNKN

T4: Boi2 SH3 (BOI2_YEAST), P39969
T4 chain: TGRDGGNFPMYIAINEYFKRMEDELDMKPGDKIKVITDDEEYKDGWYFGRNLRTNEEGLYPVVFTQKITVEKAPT

T5: Yfr024 SH3 (LSB3_YEAST), P43603
T5 chain: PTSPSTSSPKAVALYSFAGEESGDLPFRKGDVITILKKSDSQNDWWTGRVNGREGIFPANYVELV

The first assay addresses T1, Yhr016c SH3 (YSC84_YEAST), P32793. Nature of the assay: SPOT array.
SRKPPIPAKQHVKK [YIL156W 547-560] registered a normalised SPOT signal, Boehringer light units (BLU); mean over the file's lines of this peptide of 35.2.

The molecule SQFPSSPYRTVDPY [YLR183C 3-16] showed a normalised SPOT signal, Boehringer light units (BLU); mean over the file's lines of this peptide of 330.

SPSPSTPTKSGKMR [YKL185W 424-437] registered a normalised SPOT signal, Boehringer light units (BLU); mean over the file's lines of this peptide of 150.

Turning to SQQPTAPMKKTLLK [YMR198W 453-466], the normalised SPOT signal, Boehringer light units (BLU); mean over the file's lines of this peptide was 0.

Molecule SRPPRPPPKPLHLR [YIL095W 747-760] displayed a normalised SPOT signal, Boehringer light units (BLU); mean over the file's lines of this peptide of 1020.

Take SQSPKRPKKYPKKA [YNL080C 295-308]: the normalised SPOT signal, Boehringer light units (BLU); mean over the file's lines of this peptide worked out at 214.

For the molecule SPSPLNPYRPHHNM [YNL298W 402-415], the normalised SPOT signal, Boehringer light units (BLU); mean over the file's lines of this peptide was 522.

In the case of SQKPQKPKKSAITK [YJR033C 1337-1350], the normalised SPOT signal, Boehringer light units (BLU); mean over the file's lines of this peptide turned out to be 81.8.

Another assay addresses T2, Boi1 SH3 (BOI1_YEAST), P38041. Put plainly: SPOT array.
The molecule SRKPPIPAKQHVKK [YIL156W 547-560] yielded a normalised SPOT signal, Boehringer light units (BLU); mean over the file's lines of this peptide of 51.7.

The molecule SQFPSSPYRTVDPY [YLR183C 3-16] had a normalised SPOT signal, Boehringer light units (BLU); mean over the file's lines of this peptide of 72.

As for SPSPSTPTKSGKMR [YKL185W 424-437], the normalised SPOT signal, Boehringer light units (BLU); mean over the file's lines of this peptide was found to be 278.

Regarding SQQPTAPMKKTLLK [YMR198W 453-466], the normalised SPOT signal, Boehringer light units (BLU); mean over the file's lines of this peptide is 343.

On to SRPPRPPPKPLHLR [YIL095W 747-760], for which the normalised SPOT signal, Boehringer light units (BLU); mean over the file's lines of this peptide was determined as 100.

Consider SQSPKRPKKYPKKA [YNL080C 295-308], for which the normalised SPOT signal, Boehringer light units (BLU); mean over the file's lines of this peptide worked out at 47.

In the case of SPSPLNPYRPHHNM [YNL298W 402-415], the normalised SPOT signal, Boehringer light units (BLU); mean over the file's lines of this peptide came out at 63.4.

The molecule SQKPQKPKKSAITK [YJR033C 1337-1350] displayed a normalised SPOT signal, Boehringer light units (BLU); mean over the file's lines of this peptide of 87.8.

The target in a further assay is T3, Rvs167 SH3 (RV167_YEAST), P39743. Nature of the assay: SPOT array.
For the molecule SRKPPIPAKQHVKK [YIL156W 547-560], the normalised SPOT signal, Boehringer light units (BLU); mean over the file's lines of this peptide was determined as 14.9.

Take SQFPSSPYRTVDPY [YLR183C 3-16]: the normalised SPOT signal, Boehringer light units (BLU); mean over the file's lines of this peptide turned out to be 37.5.

SPSPSTPTKSGKMR [YKL185W 424-437] yielded a normalised SPOT signal, Boehringer light units (BLU); mean over the file's lines of this peptide of 35.3.

As for SQQPTAPMKKTLLK [YMR198W 453-466], the normalised SPOT signal, Boehringer light units (BLU); mean over the file's lines of this peptide worked out at 53.5.

For the molecule SRPPRPPPKPLHLR [YIL095W 747-760], the normalised SPOT signal, Boehringer light units (BLU); mean over the file's lines of this peptide amounted to 565.

For SQSPKRPKKYPKKA [YNL080C 295-308], the normalised SPOT signal, Boehringer light units (BLU); mean over the file's lines of this peptide was 57.3.

As for SPSPLNPYRPHHNM [YNL298W 402-415], the normalised SPOT signal, Boehringer light units (BLU); mean over the file's lines of this peptide came to 43.7.

The molecule SQKPQKPKKSAITK [YJR033C 1337-1350] returned a normalised SPOT signal, Boehringer light units (BLU); mean over the file's lines of this peptide of 27.

For a further assay, the target named is T4, Boi2 SH3 (BOI2_YEAST), P39969. Put plainly: SPOT array.
On to SRKPPIPAKQHVKK [YIL156W 547-560], for which the normalised SPOT signal, Boehringer light units (BLU); mean over the file's lines of this peptide is -0.

Regarding SQFPSSPYRTVDPY [YLR183C 3-16], the normalised SPOT signal, Boehringer light units (BLU); mean over the file's lines of this peptide worked out at 9.

Regarding SPSPSTPTKSGKMR [YKL185W 424-437], the normalised SPOT signal, Boehringer light units (BLU); mean over the file's lines of this peptide came to 52.9.

With SQQPTAPMKKTLLK [YMR198W 453-466], the normalised SPOT signal, Boehringer light units (BLU); mean over the file's lines of this peptide worked out at 2.3.

The molecule SRPPRPPPKPLHLR [YIL095W 747-760] displayed a normalised SPOT signal, Boehringer light units (BLU); mean over the file's lines of this peptide of 216.

Molecule SQSPKRPKKYPKKA [YNL080C 295-308] gave a normalised SPOT signal, Boehringer light units (BLU); mean over the file's lines of this peptide of 36.6.

Molecule SPSPLNPYRPHHNM [YNL298W 402-415] showed a normalised SPOT signal, Boehringer light units (BLU); mean over the file's lines of this peptide of 53.9.

SQKPQKPKKSAITK [YJR033C 1337-1350] gave a normalised SPOT signal, Boehringer light units (BLU); mean over the file's lines of this peptide of 74.5.

The target of a further assay is T5, Yfr024 SH3 (LSB3_YEAST), P43603. Put plainly: SPOT array.
The molecule SRKPPIPAKQHVKK [YIL156W 547-560] registered a normalised SPOT signal, Boehringer light units (BLU); mean over the file's lines of this peptide of 4850.

For SQFPSSPYRTVDPY [YLR183C 3-16], the normalised SPOT signal, Boehringer light units (BLU); mean over the file's lines of this peptide amounted to 114.

SPSPSTPTKSGKMR [YKL185W 424-437] yielded a normalised SPOT signal, Boehringer light units (BLU); mean over the file's lines of this peptide of 302.

For SQQPTAPMKKTLLK [YMR198W 453-466], the normalised SPOT signal, Boehringer light units (BLU); mean over the file's lines of this peptide worked out at 58.5.

SRPPRPPPKPLHLR [YIL095W 747-760]: the normalised SPOT signal, Boehringer light units (BLU); mean over the file's lines of this peptide amounted to 25900.

For the molecule SQSPKRPKKYPKKA [YNL080C 295-308], the normalised SPOT signal, Boehringer light units (BLU); mean over the file's lines of this peptide was 624.

Regarding SPSPLNPYRPHHNM [YNL298W 402-415], the normalised SPOT signal, Boehringer light units (BLU); mean over the file's lines of this peptide amounted to 343.

For SQKPQKPKKSAITK [YJR033C 1337-1350], the normalised SPOT signal, Boehringer light units (BLU); mean over the file's lines of this peptide was 647.

These data come from PMC314469, “Protein Interaction Networks by Proteome Peptide Scanning” (PLoS Biology, 2004).
